The values that follow come from patent US5723127.

The assay addresses B7 (cell surface glycoprotein, CD28-ligand B7) (Homo sapiens (Human)) (UniProt P33681).

Substance “CTLA-4Ig (chimeric recombinant soluble B7-ligand) (from UniProt P16410) (Fc fusion)” gave an IFN-γ production in PBMC stimulated with IL-12 alone (RIA) above 5 fold.
